Test results taken from article PMC7049728, “The full-length structure of Thermus scotoductus OLD defines the ATP hydrolysis properties and catalytic mechanism of Class 1 OLD family nucleases” (Nucleic Acids Research, 2020).

B1: Ts OLD (Ts^FL) (Thermus scotoductus SA-01) (protein)
chain: MLKRLQVKNFRCLEDIDLPLGPLTAIVGPNGAGKTTILRAIDLVLGDVWPSLRSFRIPQDFINFDTTRAIEITVHFDPPYTQGSFNITAFRLTCKGEDADFHVDLEPLDEGGNVPRYPSGNPLRVGTDMRNHARVLFLDHRRNLAQHLPSIRGSILGRLLQPVRREFKLQDNFKQVYEQAMDLLRTEQVKQIEKTIAETAKQMLGFLGKDAMKSMEIGFGFADPANPFNSLRLQYRESDLTLPGDELGLGIQSAIVVGIFEAFRQLGEKIGTVIIEEPEMYLHPQAQRYFYRLLCEMADKDQCQIIYSTHSPIFADVNRFEALRLVRKDRDDRVVVSYVREEDKSALDNVRNRFKLGGRFDTARNEVLFAKRALLVEGYGDRVAALQLFNQLEVDPDAECIAVVDCGGKAGIELIVGVCKALDIPFVVVHDEDVWPIDERADEETRRKQEQENKAEQEKNQRIQACAGAERVFVVQPSLEAALGIGRNASDKPYRIAEILKTVDVGQPPDALRPFVEAIRQVTRP
notes: full-length, residues 1-525, C-terminal 6xHis tag (pET21b), codon-optimized, expressed in E. coli BL21(DE3); homodimer
B2: full-length Thermus scotoductus OLD (enzyme, UniProt E8PLM2 1-528, looked up)
chain: MLKRLQVKNFRCLEDIDLPLGPLTAIVGPNGAGKTTILRAIDLVLGDVWPSLRSFRIPQDFINFDTTRAIEITVHFDPPYTQGSFNITAFRLTCKGEDADFHVDLEPLDEGGNVPRYPSGNPLRVGTDMRNHARVLFLDHRRNLAQHLPSIRGSILGRLLQPVRREFKLQDNFKQVYEQAMDLLRTEQVKQIEKTIAETAKQMLGFLGKDAMKSMEIGFGFADPANPFNSLRLQYRESDLTLPGDELGLGIQSAIVVGIFEAFRQLGEKIGTVIIEEPEMYLHPQAQRYFYRLLCEMADKDQCQIIYSTHSPIFADVNRFEALRLVRKDRDDRVVVSYVREEDKSALDNVRNRFKLGGRFDTARNEVLFAKRALLVEGYGDRVAALQLFNQLEVDPDAECIAVVDCGGKAGIELIVGVCKALDIPFVVVHDEDVWPIDERADEETRRKQEQENKAEQEKNQRIQACAGAERVFVVQPSLEAALGIGRNASDKPYRIAEILKTVDVGQPPDALRPFVEAIRQVTRPMEE
notes: Thermus scotoductus OLD (Class 1 OLD family nuclease), UniProt E8PLM2, full-length, residues 1-525; codon-optimised synthetic gene in pET21b; Dimer by SEC-MALS and by crystal symmetry; The crystal model holds residues 1-142, 149-237 and 245-525; also called Ts^FL; Ts OLD; source: E. coli BL21(DE3), purified (65°C heat step, nickel column, HiTrap Q, SEC)
B3: Thermus scotoductus OLD N-terminal region (residues 1-369) (domain or fragment, UniProt E8PLM2 1-369, looked up)
chain: MLKRLQVKNFRCLEDIDLPLGPLTAIVGPNGAGKTTILRAIDLVLGDVWPSLRSFRIPQDFINFDTTRAIEITVHFDPPYTQGSFNITAFRLTCKGEDADFHVDLEPLDEGGNVPRYPSGNPLRVGTDMRNHARVLFLDHRRNLAQHLPSIRGSILGRLLQPVRREFKLQDNFKQVYEQAMDLLRTEQVKQIEKTIAETAKQMLGFLGKDAMKSMEIGFGFADPANPFNSLRLQYRESDLTLPGDELGLGIQSAIVVGIFEAFRQLGEKIGTVIIEEPEMYLHPQAQRYFYRLLCEMADKDQCQIIYSTHSPIFADVNRFEALRLVRKDRDDRVVVSYVREEDKSALDNVRNRFKLGGRFDTARNEVLF
notes: Thermus scotoductus OLD, UniProt E8PLM2, N-terminal region encompassing the ATPase domain, residues 1-369; in pET21b; also called Ts^NTR; NTR; source: E. coli BL21(DE3), purified (65°C heat step, nickel column, HiTrap Q, SEC)

Columns and labels:
[1] = substrate: Nc1ncnc2c1ncn2[C@@H]1O[C@H](COP(=O)(O)OP(=O)(O)OP(=O)(O)O)[C@@H](O)[C@H]1O; experiment: Malachite green phosphate release ATPase assay; format: biochemical, Thermus scotoductus; settings: 65°C, 20 mM Tris-HCl pH 8, 50 mM NaCl, 5 mM MgCl2, no DNA (basal)
[2] = biological target: the molecule itself; experiment: SEC-MALS; 4 mg/ml loaded on Superdex 200 10/300 Increase; 20 mM HEPES pH 7.5, 150 mM KCl, 5 mM MgCl2, 1 mM DTT; 0.7 ml/min; Ts^FL also in different nucleotide states

| Protein | Km [1] [µM] | kcat [1] [s⁻¹] | stoichiometry N [2] |
| --- | --- | --- | --- |
| B1 | 180 ± 26 | 0.00733 ± 0.005 |  |
| B2 |  |  | 2 |
| B3 |  |  | 2 |
